Experimental data published in the supplement of paper PMC9112550, “Optimization of the antimicrobial peptide Bac7 by deep mutational scanning” (BMC Biology, 2022).

Test system: Escherichia coli TOP10
Assay: shrunken log2 fold change of peptide-encoding DNA abundance (4.5 h post-induction vs induction); higher = less antimicrobial activity (less host growth inhibition)
Conditions: time post-induction: 4.5 h; library: site-saturation at positions 5, 18, 19, 20
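Also: peptides expressed intracellularly from a pBAD plasmid library in pooled LB shake-flask culture, induced with 0.3% L-arabinose, DNA abundance read by NGS, three biological replicates, DESeq2 with apeglm shrinkage.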

Sequence	shrunken log2 fold change
RRIRTRPPRLPRPRPRPKMSPRP	0.116
RRIRGRPPRLPRPRPRPTMNPRP	0.709
RRIRNRPPRLPRPRPRPGAFPRP	-0.0452
RRIRQRPPRLPRPRPRPRNTPRP	-0.00635
RRIRWRPPRLPRPRPRPAKLPRP	0.0566
RRIRNRPPRLPRPRPRPWVFPRP	-0.221
RRIRMRPPRLPRPRPRPKRGPRP	-0.0058
RRIRKRPPRLPRPRPRPCMQPRP	0.121
RRIRDRPPRLPRPRPRPGDFPRP	-0.017
RRIRDRPPRLPRPRPRPSCAPRP	-0.0293
RRIRARPPRLPRPRPRPAGGPRP	0.678
RRIRARPPRLPRPRPRPTPIPRP	0.747
RRIRDRPPRLPRPRPRPQYGPRP	-0.414
RRIRYRPPRLPRPRPRPNKSPRP	-0.941
RRIRTRPPRLPRPRPRPGYGPRP	-0.139
RRIRKRPPRLPRPRPRPIFIPRP	-0.173
RRIRIRPPRLPRPRPRPTDVPRP	-0.444
RRIRDRPPRLPRPRPRPCWEPRP	0.28
RRIRMRPPRLPRPRPRPEHYPRP	-0.0905
RRIRARPPRLPRPRPRPQKFPRP	-0.509
RRIRCRPPRLPRPRPRPFGYPRP	-0.174
RRIRFRPPRLPRPRPRPPKLPRP	0.0996
RRIRKRPPRLPRPRPRPVCFPRP	0.54
RRIRNRPPRLPRPRPRPALDPRP	0.113
RRIRLRPPRLPRPRPRPIDGPRP	-0.0968

Sequence	shrunken log2 fold change
RRIRVRPPRLPRPRPRPLFNPRP	-0.465
RRIRYRPPRLPRPRPRPMMCPRP	0.168
RRIRWRPPRLPRPRPRPKVQPRP	0.00116
RRIRSRPPRLPRPRPRPIRMPRP	-0.109
RRIRERPPRLPRPRPRPTFSPRP	-0.216
RRIRERPPRLPRPRPRPYIAPRP	-0.946
RRIRSRPPRLPRPRPRPKDAPRP	0.22
RRIRNRPPRLPRPRPRPGPDPRP	0.295
RRIRPRPPRLPRPRPRPGAAPRP	0.552
RRIRMRPPRLPRPRPRPRAKPRP	1.25
RRIRLRPPRLPRPRPRPTMKPRP	-0.0755
RRIRWRPPRLPRPRPRPEFTPRP	0.362
RRIRPRPPRLPRPRPRPPCFPRP	0.307
RRIRWRPPRLPRPRPRPSPDPRP	0.236
RRIRRRPPRLPRPRPRPTQHPRP	0.691
RRIRTRPPRLPRPRPRPFFTPRP	-0.118
RRIRQRPPRLPRPRPRPHMGPRP	-0.512
RRIRPRPPRLPRPRPRPCSEPRP	-0.00276
RRIRFRPPRLPRPRPRPRTIPRP	-0.219
RRIRTRPPRLPRPRPRPTSLPRP	-0.123
RRIRFRPPRLPRPRPRPGKHPRP	-0.294
RRIRHRPPRLPRPRPRPPFVPRP	0.0135
RRIRMRPPRLPRPRPRPPVCPRP	0.439
RRIRWRPPRLPRPRPRPTYPPRP	-0.553
RRIRNRPPRLPRPRPRPTIGPRP	-0.00466

Sequence	shrunken log2 fold change
RRIRKRPPRLPRPRPRPFVVPRP	-0.00719
RRIRMRPPRLPRPRPRPSDNPRP	0.0409
RRIRLRPPRLPRPRPRPYPHPRP	-0.323
RRIRRRPPRLPRPRPRPFMKPRP	-0.213
RRIRPRPPRLPRPRPRPHTHPRP	-0.434
RRIRNRPPRLPRPRPRPQELPRP	-0.14
RRIRARPPRLPRPRPRPPCNPRP	0.0888
RRIRFRPPRLPRPRPRPTCTPRP	-0.0787
RRIRVRPPRLPRPRPRPSDVPRP	-0.184
RRIRRRPPRLPRPRPRPSYYPRP	-0.0156
RRIRWRPPRLPRPRPRPLMFPRP	-0.122
RRIRARPPRLPRPRPRPIQGPRP	0.0518
RRIRDRPPRLPRPRPRPMLFPRP	-0.0792
RRIRRRPPRLPRPRPRPMCSPRP	-0.0511
RRIRERPPRLPRPRPRPYREPRP	-0.00865
RRIRHRPPRLPRPRPRPKPNPRP	0.225
RRIRCRPPRLPRPRPRPMGHPRP	-0.262
RRIRLRPPRLPRPRPRPIWVPRP	-0.0362
RRIRLRPPRLPRPRPRPCVFPRP	-0.13
RRIRYRPPRLPRPRPRPMFPPRP	-0.463
RRIRVRPPRLPRPRPRPMVCPRP	-0.062
RRIRYRPPRLPRPRPRPFQHPRP	-0.281
RRIRDRPPRLPRPRPRPWHNPRP	-0.144
RRIRGRPPRLPRPRPRPTYQPRP	0.169
RRIRWRPPRLPRPRPRPHSNPRP	-0.09

Sequence	shrunken log2 fold change
RRIRVRPPRLPRPRPRPMGLPRP	-0.00681
RRIRVRPPRLPRPRPRPDKLPRP	-0.0511
RRIRWRPPRLPRPRPRPIPVPRP	-0.11
RRIRERPPRLPRPRPRPLGNPRP	-0.477
RRIRKRPPRLPRPRPRPILWPRP	0.149
RRIRFRPPRLPRPRPRPMNRPRP	-0.0364
RRIRTRPPRLPRPRPRPTLSPRP	0.106
RRIRPRPPRLPRPRPRPYKGPRP	-0.437
RRIRWRPPRLPRPRPRPETIPRP	0.322
RRIRDRPPRLPRPRPRPIFQPRP	0.242
RRIRFRPPRLPRPRPRPTNTPRP	-0.414
RRIRDRPPRLPRPRPRPGIRPRP	-0.174
RRIRCRPPRLPRPRPRPKMMPRP	-0.113
RRIRIRPPRLPRPRPRPWCEPRP	-0.639
RRIRCRPPRLPRPRPRPVARPRP	0.255
RRIRGRPPRLPRPRPRPLMFPRP	0.603
RRIRLRPPRLPRPRPRPHWRPRP	0.147
RRIRYRPPRLPRPRPRPCSHPRP	-0.566
RRIRGRPPRLPRPRPRPWVGPRP	0.12
RRIRWRPPRLPRPRPRPEVVPRP	-0.0122
RRIRTRPPRLPRPRPRPCHSPRP	-0.039
RRIRTRPPRLPRPRPRPFFHPRP	-0.158
RRIRWRPPRLPRPRPRPWFDPRP	2.76
RRIRDRPPRLPRPRPRPYRPPRP	-0.00509
RRIRQRPPRLPRPRPRPYRCPRP	-0.122

Sequence	shrunken log2 fold change
RRIRRRPPRLPRPRPRPGMLPRP	0.0899
RRIRCRPPRLPRPRPRPHFSPRP	-0.473
RRIRIRPPRLPRPRPRPYWGPRP	-0.151
RRIRYRPPRLPRPRPRPCPMPRP	-0.476
RRIRKRPPRLPRPRPRPRWFPRP	0.295
RRIRVRPPRLPRPRPRPIWAPRP	0.256
RRIRSRPPRLPRPRPRPDCEPRP	0.259
RRIRYRPPRLPRPRPRPFPGPRP	-0.253
RRIRYRPPRLPRPRPRPSQAPRP	-0.0185
RRIRLRPPRLPRPRPRPGMEPRP	0.251
RRIRFRPPRLPRPRPRPRHQPRP	0.0747
RRIRWRPPRLPRPRPRPCKMPRP	-0.184
RRIRQRPPRLPRPRPRPYVYPRP	0.00646
RRIRHRPPRLPRPRPRPGDQPRP	-0.0414
RRIRQRPPRLPRPRPRPESIPRP	0.0598
RRIRKRPPRLPRPRPRPHALPRP	0.154
RRIRWRPPRLPRPRPRPYNTPRP	-0.162
RRIRQRPPRLPRPRPRPYPHPRP	-0.0795
RRIRCRPPRLPRPRPRPNMQPRP	-0.423
RRIRSRPPRLPRPRPRPPEKPRP	0.797
RRIRQRPPRLPRPRPRPPQGPRP	0.434
RRIRWRPPRLPRPRPRPIFLPRP	-0.509
RRIRVRPPRLPRPRPRPNCIPRP	-0.213
RRIRQRPPRLPRPRPRPWRLPRP	-0.0759
RRIRQRPPRLPRPRPRPYPQPRP	-0.00227

Sequence	shrunken log2 fold change
RRIRERPPRLPRPRPRPHDFPRP	-0.0616
RRIRLRPPRLPRPRPRPTDSPRP	2.57
RRIRSRPPRLPRPRPRPPRHPRP	0.219
RRIRHRPPRLPRPRPRPVCTPRP	-0.108
RRIRCRPPRLPRPRPRPLTLPRP	-0.582
RRIRQRPPRLPRPRPRPHVRPRP	-0.00149
RRIRPRPPRLPRPRPRPYPEPRP	-0.421
RRIRARPPRLPRPRPRPILSPRP	0.376
RRIRNRPPRLPRPRPRPEEWPRP	0.108
RRIRPRPPRLPRPRPRPCCHPRP	0.0505
RRIRLRPPRLPRPRPRPHLSPRP	-0.0728
RRIRVRPPRLPRPRPRPCRRPRP	-0.299
RRIRIRPPRLPRPRPRPQPRPRP	0.343
RRIRLRPPRLPRPRPRPFLMPRP	-0.551
RRIRIRPPRLPRPRPRPHKAPRP	-0.0133
RRIRLRPPRLPRPRPRPPACPRP	0.448
RRIRQRPPRLPRPRPRPYHAPRP	-0.052
RRIRQRPPRLPRPRPRPNSKPRP	-0.429
RRIRGRPPRLPRPRPRPVRRPRP	0.977
RRIRSRPPRLPRPRPRPTDIPRP	-0.489
RRIRDRPPRLPRPRPRPNDNPRP	-0.563
RRIRLRPPRLPRPRPRPLNEPRP	-0.0224
RRIRTRPPRLPRPRPRPRGFPRP	0.732
RRIRTRPPRLPRPRPRPKHYPRP	-0.339
RRIRVRPPRLPRPRPRPTHPPRP	0.378
